Biological target: cBid 126C-DAC (caspase-8 cleaved Bid, single cysteine 126C, labelled with DAC) (UniProt P70444)
Assay: FRET or BRET

Kd: 0.033 µM
Substance: Bax 126C-NBD S184E (phosphomimetic Bax, single cysteine 126C, labelled with NBD) (from UniProt Q07812 1-192) (natural protein)

Source: PMC6123645
